Read-outs that look alike come from different tables or passages of the source.
Experiments:
Assay in all cases: co-sedimentation
[1] = target: paclitaxel-stabilized microtubules (bovine brain tubulin) (bovine) (UniProt Q6B856)
[2] = target: paclitaxel-stabilized microtubules (bovine brain tubulin) (bovine) (UniProt Q6B856); remark: listed apart in the source
[3] = target: paclitaxel-stabilized microtubules (bovine brain tubulin) (bovine) (UniProt Q6B856); remark: listed apart in the source
[4] = target: paclitaxel-stabilized microtubules (bovine brain tubulin) (bovine) (UniProt Q6B856); remark: listed apart in the source
[5] = target: paclitaxel-stabilized microtubules (bovine brain tubulin) (bovine) (UniProt Q6B856); remark: listed apart in the source

Chain of paclitaxel-stabilized microtubules (bovine brain tubulin) (bovine) (Q6B856 whole entry, looked up): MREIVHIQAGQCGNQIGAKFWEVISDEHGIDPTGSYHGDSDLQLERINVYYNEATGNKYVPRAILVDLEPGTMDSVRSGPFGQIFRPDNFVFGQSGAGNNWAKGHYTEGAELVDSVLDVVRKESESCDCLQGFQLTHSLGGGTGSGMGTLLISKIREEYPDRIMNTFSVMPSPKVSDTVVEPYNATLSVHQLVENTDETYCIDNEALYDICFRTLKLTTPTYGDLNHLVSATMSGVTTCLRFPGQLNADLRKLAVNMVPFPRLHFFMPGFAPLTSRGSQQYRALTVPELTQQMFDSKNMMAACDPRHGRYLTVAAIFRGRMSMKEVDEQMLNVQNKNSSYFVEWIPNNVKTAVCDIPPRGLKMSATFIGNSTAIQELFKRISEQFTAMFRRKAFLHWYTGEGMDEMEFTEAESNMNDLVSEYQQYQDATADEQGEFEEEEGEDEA

Substance | Kd [1] | Kd [2] | Kd [3] | stoichiometry N [3] | stoichiometry N (motor bound per tubulin dimer) [3] | Kd [4] | stoichiometry N (motor per tubulin dimer) [3] | Kd [5]
Cin8-EL8 (tagless): monomeric Cin8 motor with the loop-8 insert of Eg5 (domain or fragment) | 2.9 µM | 3 µM | 0.1 µM | 1.4 | 1 |  |  | 
Eg5-CL8-MBP (MBP-His6-TEV-Eg5-CL8) (from UniProt P27895 261-359) (domain or fragment) |  |  | 0.1 µM |  |  | 0.1 µM | 1 | 
Eg5-KL8: monomeric Eg5 motor domain with the loop-8 insert of Kip1 (domain or fragment) |  |  | 0.1 µM | 1.3 |  |  |  | 0.44 µM
wild type monomeric Cin8 motor domain with thioredoxin tag (Cin8-trx) (domain or fragment) |  |  | 0.007 µM | 2.2 |  |  |  | 
